One data set addresses PPARg:RXRa (Homo sapiens, UniProt P37231;P19793 full;full). The data set can be described thus: no ligand; PBM; 180 nM : 90 nM RXRa; PBS pH 7.4, 2% milk, 0.02% Triton X-100, 1 mM DTT, BSA, 0.4 mg/ml salmon testes DNA. To be noted: tags: His kept;His cleaved; copies: 1;1; label: surface-attached array probe.
The next data set has as its target FXR:RXRa (Homo sapiens, UniProt Q96RI1;P19793 full;full). The data set can be described thus: no ligand; PBM; 270 nM : 90 nM RXRa; PBS pH 7.4, 2% milk, 0.02% Triton X-100, 1 mM DTT, BSA, 0.4 mg/ml salmon testes DNA. To be noted: tags: His kept;His cleaved; copies: 1;1; label: surface-attached array probe. In short, it runs like this: (§1)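 The probes on custom Agilent 4×180K protein-binding microarrays were double-stranded, with 34-nt variable regions bearing direct-repeat seeds, single-nucleotide variants, half-site ablations and random human genomic background sequences. Incubation lasted 1 h with ligand-free nuclear receptor dimers in PBS pH 7.4, 2% milk, 0.02% Triton X-100, 1 mM DTT, 0.2 mg/mL BSA and 0.4 mg/ml salmon testes DNA. Antibodies against each partner (one per run) detected bound dimers, and fluorescence scans were regression-normalized. Binding z-scores take the random background probes as reference.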

The target in another data set is RARb:RXRa (Homo sapiens, UniProt P10826;P19793 full;full). The data set is described as above. To be noted: tags: His kept;His cleaved; copies: 1;1; label: surface-attached array probe. In short, it runs like this: as §1
RARb:RXRa, sequence (P10826 whole entry, chain 1 of 2): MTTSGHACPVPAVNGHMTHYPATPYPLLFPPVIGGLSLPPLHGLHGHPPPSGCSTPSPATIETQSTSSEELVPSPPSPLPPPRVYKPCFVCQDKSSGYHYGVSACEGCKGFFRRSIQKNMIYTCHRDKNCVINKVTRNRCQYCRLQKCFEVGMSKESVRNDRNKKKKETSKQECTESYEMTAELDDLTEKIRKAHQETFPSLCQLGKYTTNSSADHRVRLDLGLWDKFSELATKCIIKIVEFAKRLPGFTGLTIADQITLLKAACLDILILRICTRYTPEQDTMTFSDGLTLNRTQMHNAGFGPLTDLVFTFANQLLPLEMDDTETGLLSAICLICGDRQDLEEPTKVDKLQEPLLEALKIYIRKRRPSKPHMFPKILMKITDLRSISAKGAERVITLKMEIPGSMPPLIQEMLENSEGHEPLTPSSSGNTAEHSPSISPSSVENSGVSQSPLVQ
RARb:RXRa, sequence (P19793 whole entry, chain 2 of 2): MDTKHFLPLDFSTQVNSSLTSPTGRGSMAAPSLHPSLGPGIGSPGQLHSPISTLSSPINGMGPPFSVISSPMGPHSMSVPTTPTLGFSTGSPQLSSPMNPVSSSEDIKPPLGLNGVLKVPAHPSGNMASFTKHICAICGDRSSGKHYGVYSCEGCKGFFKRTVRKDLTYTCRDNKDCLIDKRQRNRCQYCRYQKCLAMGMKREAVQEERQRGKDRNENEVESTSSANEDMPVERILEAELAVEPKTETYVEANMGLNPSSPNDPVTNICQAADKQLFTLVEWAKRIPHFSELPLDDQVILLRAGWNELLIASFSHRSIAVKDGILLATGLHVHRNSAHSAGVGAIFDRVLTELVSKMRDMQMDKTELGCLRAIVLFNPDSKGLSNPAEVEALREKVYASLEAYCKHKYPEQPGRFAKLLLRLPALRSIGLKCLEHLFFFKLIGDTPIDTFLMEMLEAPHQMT
The next data set addresses PPARa:RXRa (Homo sapiens, UniProt Q07869;P19793 full;full). The data set is described as above. To be noted: tags: GST kept;His cleaved; copies: 1;1; label: surface-attached array probe. In short, it runs like this:
as §1

For another data set, the target named is RARg:RXRa (Homo sapiens, UniProt P13631;P19793 full;full). Described as above. To be noted: tags: His kept;His cleaved; copies: 1;1; label: surface-attached array probe. In short, it runs like this:
as §1

PPARg:RXRa, sequence (P37231 29-505, chain 1 of 2): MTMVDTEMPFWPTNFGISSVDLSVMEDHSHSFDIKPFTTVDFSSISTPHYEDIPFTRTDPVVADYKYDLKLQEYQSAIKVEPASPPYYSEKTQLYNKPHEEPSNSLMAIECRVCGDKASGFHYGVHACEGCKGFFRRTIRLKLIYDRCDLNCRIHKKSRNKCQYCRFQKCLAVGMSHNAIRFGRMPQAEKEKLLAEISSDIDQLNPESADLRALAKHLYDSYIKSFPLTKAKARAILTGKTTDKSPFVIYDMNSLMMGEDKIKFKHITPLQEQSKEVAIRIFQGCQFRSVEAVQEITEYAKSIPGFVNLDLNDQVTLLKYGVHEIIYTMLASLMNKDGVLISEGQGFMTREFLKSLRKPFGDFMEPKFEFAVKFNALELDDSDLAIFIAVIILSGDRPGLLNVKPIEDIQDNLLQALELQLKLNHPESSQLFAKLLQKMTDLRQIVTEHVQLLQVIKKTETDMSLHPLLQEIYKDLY
PPARg:RXRa, sequence (P19793 whole entry, chain 2 of 2): as the sequence (P19793 whole entry, chain 2 of 2) above
RARg:RXRa, sequence (P13631 whole entry, chain 1 of 2): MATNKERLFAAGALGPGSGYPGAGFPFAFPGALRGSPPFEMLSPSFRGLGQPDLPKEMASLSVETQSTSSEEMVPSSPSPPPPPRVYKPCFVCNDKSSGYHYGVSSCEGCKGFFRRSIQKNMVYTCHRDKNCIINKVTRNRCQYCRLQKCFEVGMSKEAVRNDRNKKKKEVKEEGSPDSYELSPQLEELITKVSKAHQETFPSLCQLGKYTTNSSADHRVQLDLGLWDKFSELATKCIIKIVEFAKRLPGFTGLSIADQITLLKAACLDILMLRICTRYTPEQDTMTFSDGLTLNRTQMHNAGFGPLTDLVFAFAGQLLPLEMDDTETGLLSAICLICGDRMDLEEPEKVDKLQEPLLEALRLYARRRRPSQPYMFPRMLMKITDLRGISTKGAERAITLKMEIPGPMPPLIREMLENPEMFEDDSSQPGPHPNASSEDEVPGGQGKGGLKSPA
RARg:RXRa, sequence (P19793 whole entry, chain 2 of 2): as the sequence (P19793 whole entry, chain 2 of 2) above
PPARa:RXRa, sequence (Q07869 whole entry, chain 1 of 2): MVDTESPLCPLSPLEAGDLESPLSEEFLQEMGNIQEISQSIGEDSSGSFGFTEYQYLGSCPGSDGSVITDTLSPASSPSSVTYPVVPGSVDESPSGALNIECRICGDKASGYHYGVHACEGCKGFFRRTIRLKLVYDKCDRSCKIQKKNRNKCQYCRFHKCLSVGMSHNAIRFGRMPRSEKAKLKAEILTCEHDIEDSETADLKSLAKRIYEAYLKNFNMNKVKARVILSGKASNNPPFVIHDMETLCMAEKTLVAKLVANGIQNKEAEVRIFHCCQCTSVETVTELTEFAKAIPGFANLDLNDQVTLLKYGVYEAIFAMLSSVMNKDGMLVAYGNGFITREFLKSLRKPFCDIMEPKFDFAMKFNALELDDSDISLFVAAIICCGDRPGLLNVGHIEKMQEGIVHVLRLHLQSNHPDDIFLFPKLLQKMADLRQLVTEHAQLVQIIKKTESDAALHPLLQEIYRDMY
PPARa:RXRa, sequence (P19793 whole entry, chain 2 of 2): as the sequence (P19793 whole entry, chain 2 of 2) above
FXR:RXRa, sequence (Q96RI1 whole entry, chain 1 of 2): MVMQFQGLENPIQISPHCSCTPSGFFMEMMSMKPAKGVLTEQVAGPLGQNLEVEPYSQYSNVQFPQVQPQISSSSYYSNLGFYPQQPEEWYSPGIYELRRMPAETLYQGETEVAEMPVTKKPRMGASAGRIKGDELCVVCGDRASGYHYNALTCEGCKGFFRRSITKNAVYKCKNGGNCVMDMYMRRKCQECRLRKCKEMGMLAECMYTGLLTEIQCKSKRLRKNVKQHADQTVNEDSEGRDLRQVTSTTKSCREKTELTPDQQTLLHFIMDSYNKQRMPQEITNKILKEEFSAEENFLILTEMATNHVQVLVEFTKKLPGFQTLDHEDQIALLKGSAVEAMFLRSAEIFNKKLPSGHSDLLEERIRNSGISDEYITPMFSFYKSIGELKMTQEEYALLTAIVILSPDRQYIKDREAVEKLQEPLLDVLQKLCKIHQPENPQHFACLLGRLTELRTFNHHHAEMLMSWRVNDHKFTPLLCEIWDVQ
FXR:RXRa, sequence (P19793 whole entry, chain 2 of 2): as the sequence (P19793 whole entry, chain 2 of 2) above

B1: NRC3_wobSeed33_DR1_C5A_o1 (dsDNA)
DNA 1: GCATATCTAGGTAAAAGTTCAGTGAATCCCGAGGATGCGATTGACAGCGTAGAATGAAGG
DNA 2: CCTTCATTCTACGCTGTCAATCGCATCCTCGGGATTCACTGAACTTTTACCTAGATATGC
For the molecule B1, the binding signal in the data set with PPARg:RXRa is 10.1 PBM z-score against 500 random probes.

B2: NRC3_wobSeed89_DR3_T13G_o1 (dsDNA)
DNA 1: GCCTATGTAGGTGAAGGGGGTCATTCAGTTTGAAAGGCGATTGACAGCGTAGAATGAAGG
DNA 2: CCTTCATTCTACGCTGTCAATCGCCTTTCAAACTGAATGACCCCCTTCACCTACATAGGC
For B2, the binding signal with PPARg:RXRa is 9.64 PBM z-score against 500 random probes.

B3: NRC3_wobSeed47_DR1_G8T_o1 (dsDNA)
DNA 1: GCGGAACTAGGGCAAAGTTGATAGCATCTGTCGACGGCGATTGACAGCGTAGAATGAAGG
DNA 2: CCTTCATTCTACGCTGTCAATCGCCGTCGACAGATGCTATCAACTTTGCCCTAGTTCCGC
Consider B3, for which the binding signal with PPARg:RXRa was 10 PBM z-score against 500 random probes.

B4: NRC3_wobSeed133_DR5_T12A_o1 (dsDNA)
DNA 1: GCCGTCCAAGGACAATGCTAGGTCAGTGAAAGCATTGCGATTGACAGCGTAGAATGAAGG
DNA 2: CCTTCATTCTACGCTGTCAATCGCAATGCTTTCACTGACCTAGCATTGTCCTTGGACGGC
With B4, the figures for the binding signal in the data set with PPARg:RXRa and in the data set with FXR:RXRa were 0.18 PBM z-score against 500 random probes and 0.29 PBM z-score against 500 random probes, respectively.

B5: NRC3_wobSeed1_DR0_G23T_o1 (dsDNA)
DNA 1: GCCAAACTAGGTCAAGGTCAAATTCGGTTTGTGCCAGCGATTGACAGCGTAGAATGAAGG
DNA 2: CCTTCATTCTACGCTGTCAATCGCTGGCACAAACCGAATTTGACCTTGACCTAGTTTGGC
B5: the binding signal with PPARg:RXRa was 10.2 PBM z-score against 500 random probes.

B6: NRC3_wobSeed1_DR0_C25A_o1 (dsDNA)
DNA 1: GCCAAACTAGGTCAAGGTCAAAGTAGGTTTGTGCCAGCGATTGACAGCGTAGAATGAAGG
DNA 2: CCTTCATTCTACGCTGTCAATCGCTGGCACAAACCTACTTTGACCTTGACCTAGTTTGGC
Regarding B6, the binding signal with PPARg:RXRa is 9.94 PBM z-score against 500 random probes.

B7: NRC3_wobSeed1_DR0_A4T_o1 (dsDNA)
DNA 1: GCCTAACTAGGTCAAGGTCAAAGTCGGTTTGTGCCAGCGATTGACAGCGTAGAATGAAGG
DNA 2: CCTTCATTCTACGCTGTCAATCGCTGGCACAAACCGACTTTGACCTTGACCTAGTTAGGC
Turning to B7, in the data set with PPARg:RXRa, the binding signal is 10 PBM z-score against 500 random probes.

B8: NRC3_wobSeed1_DR0_C7G_o1 (dsDNA)
DNA 1: GCCAAAGTAGGTCAAGGTCAAAGTCGGTTTGTGCCAGCGATTGACAGCGTAGAATGAAGG
DNA 2: CCTTCATTCTACGCTGTCAATCGCTGGCACAAACCGACTTTGACCTTGACCTACTTTGGC
For B8, in the data set with PPARg:RXRa, the binding signal is 10 PBM z-score against 500 random probes.

B9: NRC3_wobSeed17_DR0_T13C_o1 (dsDNA)
DNA 1: GCATATGTAGGTCAGGGTCATTCAGAAAGTAGGGAAGCGATTGACAGCGTAGAATGAAGG
DNA 2: CCTTCATTCTACGCTGTCAATCGCTTCCCTACTTTCTGAATGACCCTGACCTACATATGC
On to B9, for which the binding signal in the data set with PPARg:RXRa was 9.79 PBM z-score against 500 random probes.

B10: NRC3_wobSeed46_DR1_C6T_o1 (dsDNA)
DNA 1: GCTTATCAAGGTGAAAGGTCGTTGATGCACGCCTTGGCGATTGACAGCGTAGAATGAAGG
DNA 2: CCTTCATTCTACGCTGTCAATCGCCAAGGCGTGCATCAACGACCTTTCACCTTGATAAGC
Regarding B10, the binding signal with PPARg:RXRa is 10.9 PBM z-score against 500 random probes; with RARb:RXRa, 3.04 PBM z-score against 500 random probes.

B11: NRC3_wobSeed35_DR1_T11G_o1 (dsDNA)
DNA 1: GCGCTATTAGGTGAAAGGGCAACCGAATGATTCTCGGCGATTGACAGCGTAGAATGAAGG
DNA 2: CCTTCATTCTACGCTGTCAATCGCCGAGAATCATTCGGTTGCCCTTTCACCTAATAGCGC
Consider B11, for which, in the data set with PPARg:RXRa, the binding signal is 9.85 PBM z-score against 500 random probes.

B12: NRC3_wobSeed15_DR0_G11T_o1 (dsDNA)
DNA 1: GCCGAACTAGTTCAAGGACAGTGAATCTCCGCACGCGCGATTGACAGCGTAGAATGAAGG
DNA 2: CCTTCATTCTACGCTGTCAATCGCGCGTGCGGAGATTCACTGTCCTTGAACTAGTTCGGC
Regarding B12, the values for the binding signal in the data set with PPARg:RXRa and with PPARa:RXRa were 0.49 PBM z-score against 500 random probes and 0.44 PBM z-score against 500 random probes, respectively.

B13: NRC3_wobSeed32_DR1_T20C_o1 (dsDNA)
DNA 1: GCTCTTGTAGATCAAAGGTCAAGAAAGCCGAAGCCTGCGATTGACAGCGTAGAATGAAGG
DNA 2: CCTTCATTCTACGCTGTCAATCGCAGGCTTCGGCTTTCTTGACCTTTGATCTACAAGAGC
On to B13, for which the binding signal with PPARg:RXRa is 9.91 PBM z-score against 500 random probes.

B14: NRC3_random_hg19_249_o1 (dsDNA)
DNA 1: GCTTTCCCACAATGTGTAGTTAGAGTTTGAGTTGTGGCGATTGACAGCGTAGAATGAAGG
DNA 2: CCTTCATTCTACGCTGTCAATCGCCACAACTCAAACTCTAACTACACATTGTGGGAAAGC
As for B14, the binding signal with PPARg:RXRa is -0.37 PBM z-score against 500 random probes; in the data set with RARg:RXRa, -0.1 PBM z-score against 500 random probes.

B15: NRC3_wobSeed39_DR1_A19G_o1 (dsDNA)
DNA 1: GCCGAACTAGGTCAAAGGGCAGTGAAAGGCGACGTAGCGATTGACAGCGTAGAATGAAGG
DNA 2: CCTTCATTCTACGCTGTCAATCGCTACGTCGCCTTTCACTGCCCTTTGACCTAGTTCGGC
As for B15, the results for the binding signal with PPARg:RXRa and with PPARa:RXRa were 12.3 PBM z-score against 500 random probes and 6.69 PBM z-score against 500 random probes, respectively.

B16: NRC3_wobSeed28_DR1_C4T_o1 (dsDNA)
DNA 1: GCCTTACTGGGCCAAAGGTCATTGATTCCAATGCTCGCGATTGACAGCGTAGAATGAAGG
DNA 2: CCTTCATTCTACGCTGTCAATCGCGAGCATTGGAATCAATGACCTTTGGCCCAGTAAGGC
For B16, the binding signal with PPARg:RXRa is 12.9 PBM z-score against 500 random probes; with PPARa:RXRa, 7.1 PBM z-score against 500 random probes.

B17: NRC3_wobSeed40_DR1_A4G_o1 (dsDNA)
DNA 1: GCTGGCCTAGGTCATGGGCCAGTATACCACGCGAACGCGATTGACAGCGTAGAATGAAGG
DNA 2: CCTTCATTCTACGCTGTCAATCGCGTTCGCGTGGTATACTGGCCCATGACCTAGGCCAGC
For the molecule B17, the binding signal is 3.34 PBM z-score against 500 random probes in the data set with PPARg:RXRa and 4.24 PBM z-score against 500 random probes in the data set with RARg:RXRa.

B18: NRC3_wobSeed26_DR1_C4T_o1 (dsDNA)
DNA 1: GCTTTAGTTGGTCAAAGGTCACACACTCGAAATGCGGCGATTGACAGCGTAGAATGAAGG
DNA 2: CCTTCATTCTACGCTGTCAATCGCCGCATTTCGAGTGTGTGACCTTTGACCAACTAAAGC
In the case of B18, the binding signal is 12.1 PBM z-score against 500 random probes in the data set with PPARg:RXRa and 6.88 PBM z-score against 500 random probes with PPARa:RXRa.

B19: NRC3_random_hg19_447_o1 (dsDNA)
DNA 1: GCCTCTCTTTCTCTCTCTCTCTCTCTCTCTCTCTCTGCGATTGACAGCGTAGAATGAAGG
DNA 2: CCTTCATTCTACGCTGTCAATCGCAGAGAGAGAGAGAGAGAGAGAGAGAGAAAGAGAGGC
Regarding B19, the binding signal in the data set with PPARg:RXRa was -3.64 PBM z-score against 500 random probes; with RARg:RXRa it was -0.31 PBM z-score against 500 random probes.

B20: NRC3_random_hg19_62_o1 (dsDNA)
DNA 1: GCAGATGGGAGAGTTCCCTTGATTCCTTTGTGGGAGGCGATTGACAGCGTAGAATGAAGG
DNA 2: CCTTCATTCTACGCTGTCAATCGCCTCCCACAAAGGAATCAAGGGAACTCTCCCATCTGC
For B20, the binding signal with PPARg:RXRa was -0.56 PBM z-score against 500 random probes; with PPARa:RXRa, -0.1 PBM z-score against 500 random probes.

B21: NRC3_wobSeed66_DR2_C20T_o1 (dsDNA)
DNA 1: GCAATACAGGGTCACTAGGTCAGAGTAGGTACGAATGCGATTGACAGCGTAGAATGAAGG
DNA 2: CCTTCATTCTACGCTGTCAATCGCATTCGTACCTACTCTGACCTAGTGACCCTGTATTGC
As for B21, the binding signal with PPARg:RXRa is 9.89 PBM z-score against 500 random probes.

B22: NRC3_wobSeed41_DR1_T13G_o1 (dsDNA)
DNA 1: GCATATGTAGGTGAAGGGTCATTCAGGTTGGTTCGCGCGATTGACAGCGTAGAATGAAGG
DNA 2: CCTTCATTCTACGCTGTCAATCGCGCGAACCAACCTGAATGACCCTTCACCTACATATGC
Turning to B22, the binding signal with PPARg:RXRa was 12.8 PBM z-score against 500 random probes; with PPARa:RXRa, 7.07 PBM z-score against 500 random probes.

B23: NRC3_wobSeed27_DR1_C6T_o1 (dsDNA)
DNA 1: GCACTTGGAGGACAAAGGTCAGAGCTACGCCAGTGAGCGATTGACAGCGTAGAATGAAGG
DNA 2: CCTTCATTCTACGCTGTCAATCGCTCACTGGCGTAGCTCTGACCTTTGTCCTCCAAGTGC
On to B23, for which, in the data set with PPARg:RXRa, the binding signal is 10.1 PBM z-score against 500 random probes.

B24: NRC3_wobSeed27_DR1_C6A_o1 (dsDNA)
DNA 1: GCACTAGGAGGACAAAGGTCAGAGCTACGCCAGTGAGCGATTGACAGCGTAGAATGAAGG
DNA 2: CCTTCATTCTACGCTGTCAATCGCTCACTGGCGTAGCTCTGACCTTTGTCCTCCTAGTGC
B24: in the data set with PPARg:RXRa, the binding signal is 10 PBM z-score against 500 random probes.

B25: NRC3_random_hg19_393_o1 (dsDNA)
DNA 1: GCTCCCAGCCACTCAGGAGGCTGAGGCAGGAGAATTGCGATTGACAGCGTAGAATGAAGG
DNA 2: CCTTCATTCTACGCTGTCAATCGCAATTCTCCTGCCTCAGCCTCCTGAGTGGCTGGGAGC
In the case of B25, the values for the binding signal in the data set with PPARg:RXRa and in the data set with FXR:RXRa were -0.69 PBM z-score against 500 random probes and -1.65 PBM z-score against 500 random probes, respectively.

B26: NRC3_wobSeed121_DR5_A4T_o1 (dsDNA)
DNA 1: GCCTAACTAGGTCACCGGAAGGTCAAAGTCCGCATGGCGATTGACAGCGTAGAATGAAGG
DNA 2: CCTTCATTCTACGCTGTCAATCGCCATGCGGACTTTGACCTTCCGGTGACCTAGTTAGGC
In the case of B26, the binding signal with PPARg:RXRa was 10.2 PBM z-score against 500 random probes.
